Data taken from the DeepSol protein solubility set.

Experiment: soluble on expression in E. coli; label from the status in PepcDB or PDB records
For “GPGSMRKFCHFMANCWNSARSHATYGAVPLTHSQVTSVYATDGGKVDELGLLELVEERIFSWKLNKWEMRIPPNLPNDQKELIRQEQENLKQILSGWRKCFGALNADILQISSLTGVPKEVVREKNRTWLQEEVAKLRWMGEVNKAALLRDAFMRLEAFGSRDFMFMERLCCIYGLARQGTFDEAFTNYITEDPVTNDIFVDERNPFKELVAHIVRNYSQIDIIYDFLGFNYSEGYRSSLRRYMEYLQCKTAENVRASGRLVTGDKGEHNILFDYCVSRESLVSGDSCQGIIDFLYINGNDVTLIIIASDNPWLRNRQLPHRRQMEGIARRVCFVLGIPPSEVRIRNLLLPPTYLDKGSIVRLNDIVFRLSNEQSNLLIPWLTNYNKELDPKDVDYTALAKTTNEEEWLTL”, the “soluble on expression in E. coli” value was “not soluble”.
For “GPGSMRYFVVAHEFQAEEDVELSVFKGEILCATEGVAQDGWIKVEATTDARRRGFVPMSYLREISAAEASTSMSAPASSAPPLTGESTSPMRTPQRAGGESSARAALANTTVSTSLDLGNCSGVVAKGFSPSLQPMRSPETTAVHAAPASSSIHLTPAQQAAGPVSRHLLENPNAVVDAFMKNEVYFNQLMQRRASALAQMQSGLEEAMTEVAACKDRSAVLTRKLHDLDGVVERERQRWMDRVEEEKVHVSRSIPYSAPLAVPVSSGTTPLRSPIIGPHSGVGRSVLDDDSPRQLRA”, the “soluble on expression in E. coli” value was “soluble”.
With “GPGSMSHNVRPSRYAVSQSKARIFVGQLEPYVTEQDLYPVFSCYGKILHLNIVRHSTTVTPNEERRIPTAFVWYETTTEADAAIAALHNVFTFSSPDEEENKVRYIQVSYADKSPECTPWGRWQKTQAEIMRRTNPSGTGTGSNMPGQYSHITGGGPSTYSSSALNNDGGFTVSATGPAIRSSQSSGDISSMRYPRNPARGLRSMAPHIDHPEVQYYSSYDNLYNLGNRNQLYSMGGAANSMMGYTKHRGMPPHESTSSGDLGRGSTSSFWNMSEEVKKNTAANPNRFRHTARYTAPEPDEDLIMAAPTFTVTSGP” the “soluble on expression in E. coli” value was “not soluble”.
For “GPGSMSKQKKEVVINLDEVDEQTGYKSAELFVWLKFDETYLQKPEDDREADVDAWVDAFCEQMEEEGMNYDRNFVRSVCVLGIYAGARDEFQQRMGSGKAVYPNGDRYDGEFFEGKKHGTGRYCFVSRGKSECDRIVEKEMQKLGGAVPDEQFITNVAEKYKISRQIVSWIIEYGVYPCYHGDYVRGVRTGQGLMKNKDGTVYKGDFLANKRHGQGMFYYLNGDIFSGTWRNGLKHGYGTYHFAGGSEYRGSWVDGVFTQGQWIFPDGTYYEGLFNKKNRPCDDAASMHFPSIKMAQTGVFRRGVWAPSSALQVCEETPVDGMSWID”, the “soluble on expression in E. coli” value was “soluble”.
In the case of “GPGSMSLVESQKDMADLLPCNEECGGDYGRYSFGQTDTEVIVKVPLPSDTPTKMINVDVKVSSLTIGMKGQSPLISGDLYKPVKVDECTWCVEDKSVLVVTLVKTNAQYEEWWPCVTTNERQIDMKTFRPPSKHISELDDSARATIAKMMFDQRQKALNLPSSDELRLRELMQRGGTSN”, the “soluble on expression in E. coli” value is reported as “soluble”.
For “GPGSMSMQQDFVHPRQLDDMRAIHAAINSFSGVMTKMMMLMKELGTTLEQVSHSFDALTSLTFTKDEVKQYVHKFGEEIISMKEGIAFCEYNKLVHEDVLHPVEQLKKSLKEAEQAAKAEKSAFEKYKKAKQRVDKQEKAFAEKSKPLDTSKSYPTHVQARNNALVSLQNCKSEFEERFVMLMNDVESVTSTALRRYLELNAGYMTSVVDALTKTDPTVGEAAVFYRQEKQAHRQSAVEQCCLQVNSDLSTAHASQGYRFDPSRMNGCLHDTIIFKRLPSRLRHSTGSRTRSLRVNRPAVE”, the “soluble on expression in E. coli” value was “soluble”.
For “GPGSMSNEEVFRISNVSGYSVEIPLATAKELLGMLNMDQVFRAARAGTDDTDESGVDDGDTEPVKAEGMDYGKEVLDVVRAYALLPPDKRTSSIPRPLTQDLRSVVYAGEMELVEKAEREDYLVDLLNCALFLRFSQLSALCAAYMAVRIDEIAKAAPDIMEGAERIRKFLHMQNEWTEEEMGHLRREMEYAKSVDPNVY”, the “soluble on expression in E. coli” value was “soluble”.
In the case of “GPGSMSRQQQAQELQKQWETDPRWKGIKRAFTAEDVVRLRGSIQQEHTLAKRGAEKLWTLINNEPFVNALGALTGNQAMQQVKAGLKAIYLSGWQVAGDANVAGEMYPDQSLYPANSVPLVVKRINNTLTRADQIQWSEGKNPGDEGYVDFFAPIVADAEAGFGGVLNAFELMKAMIEAGASGVHFEDQLASVKKCGHMGGKVLVPTREAVAKLTAARLAADVMGTPTVLVARTDAEAADLITSDIDDNDKPYLTGERTVEGFFRTKPGLEQAISRGLAYAPYADLIWCETGKPDLEYAKKFAEAIHKQFPGKLLSYNCSPSFNWKKNLDDATIAKFQKELGAMGYKFQFITLAGFHALNYSMFNLAHGYARTQMSAFVELQQAEFAAADKGFTAVKHQREVGTGYFDAVTQTVEREASTTALHGSTEDEQFFDGQKVA”, the “soluble on expression in E. coli” value is reported as “soluble”.
For “GPGSMSSKEELAALMASDGDFEKKISLLKKAVVTVTKQKKEVEARQTQLQGELSTATQQLAEAQRANAALQRKVKSLEAQQEQERSSGSAFGQNMLKGLSSIMGNSDSANRGGARGERGSAGDRLSLSPEDVERLISENEQLHRQIYAFKTKLEDVQHSSAKDTERLKSEVARLQRETQELRRSLEANTATGDRLRADYLTERALGDFCRHFFVATLLRPQQERESFLTGTTVEVRWPAKGPSSNSAAAAFSDSLPAVVSERVTLALQSAAGTVKTLLRGVSVLAVVLQEQLPSRERATVGDLECLRDRLSVFLEAHTAKKDSLMYLLEQLDSQLSAVQHADEEGGSAPVSADAFVEAQGNIVQLVLEWVGLLRTQLPLLVESCVAILPHGNSYTMYTAHVSAGTGDGAAEPRKTTTERGEFVEEVTRHGYATLASIEGSLTAMRMLVERSPTAYYRCYNNGNRGGALPEPPTTKETLNFTSSLEATQPPMDLSSLLALQQFWWEGCTSVRSLRASILALNSGLVNVAEACNKSEIRDALNYLCKCLEAIAAASEEMYGSPRLAPADADAAIAALVPDALAPRTPAHAPPSEASSWALRPRTAIATSSTLTAEGVRDTAYADKYEELLVALSAADRAAASYYTQMNYLYVEMAEKEDALQTALEAVAHLQQLIVAERAEAKHTRQALQSQISLLSTQLVEMAGAPAAQTPQ”, the “soluble on expression in E. coli” value was “not soluble”.
For “GPGSMSSLQKINDIEAELARTQKNKATMAHICALKARLAQLKRELIASESKKGGGKGEGFDVQKTGDARIGFIGFPSVGKSTLLSKMTSTHSEVAAYEFTTLTCVPGVVNYRGAKLQMLDLPGIIEGAKDGKGRGRQVIAVARTCSLILIVLDIAKPLQHKLIIERELDGFGIRLNKSPPDIVIRKKDRGGISISSTCPLTHIDQETIKIILGEYRMANADVTFRGDYTADEFIDAIEGNRAYIPAIYVLNKIDQISIEELDIVARIPHNCPISAHHEWNLDGLLECIWDHLNFIRVYTKPKGQVPDYDAPVILKKSPQPSVESFCNRIHRQLIRNYKYAWVWGSSVKHQPQRVGKDHSLDDEDVVQVVKKV”, the “soluble on expression in E. coli” value was “not soluble”.
In the case of “GPGSMSSSGPLAPPISWAQRPEYVLITIPLQDTTGVSVEIKDEGRELHFACSSPEHKQYACTIHFYGVISSEESQHVVRPRQIELKLRKKFSKSLEDANDDEVEWPRLTKEKSKYPNITIDWSKWKDENDDECAADDLGNFGLSGGDAMDGQYSEMLSQLMQAQGQKDAEESADLPPGTIPGFGSARGQEATHGASAETGDDDGDMPPLEEDT”, the “soluble on expression in E. coli” value is reported as “soluble”.
For “GPGSMSTQLISGGEDGSHSQLMDLVLTNCSRPQSRASDNKQSTDGVVRLTSYVDLPNRDTLLPPIAEPKGGVPETSETLFPRRLGFDMIGVSSVSEEMLRDLYEVFDVHQSGGVERGVLREMMRSGFSHFGAPCSDRDLDRFFENVTPFRVRRRRTPKEGEVDVVPFNEFCVAFLSWLRR”, the “soluble on expression in E. coli” value was “soluble”.
With “GPGSMTEYKKLCAILAQLREEVTSLSCAFEGGEGQDTVALHSLSTSIQKLVTNAQPRLLKILRKATETDPNRQIYNEAMCAAIKQLFDDFCELLSCLFGVPMEEMVLSEGKINFEDSPSISWTEDVHNNYLLHLAQTEAWKKRIATNIADLVLFEEETRTVYFAEERKARETLLQIKRNEKTNILHMLKEREAAKWEAEVRRRNDEHKGLMNASSFYGVQNIATVLLRIPEPFRKLLAGNMAQLVRALRTTPEDPNIRRIRCNNRRVMMDYSHVVFCGECETCRILVAAAEILWYIMGYRVEYSTAPTSSLRTVIENNPPILLPCGRYASEHAIAVIGFEEYSERFFTLHEPDPMQDSDEWMVWYATLEALLARLEDCLV” the “soluble on expression in E. coli” value was “not soluble”.
For “GPGSMTYCPITRKELERYLPNFDPLLDPQIGEWVLVTPERRFAILGPLLQFVQEHAIKPIYPFLDNSEPSSAPVTTFNFCKEDSPKTLGDPSKVFPTLSEVWRRYRRRRFHISGMDEDGIGEEEENDDTILYLNPRALLLTPCAPAVFGGSDFIEGLDREGERVVFVNWKTGETRTDSGVLKPAPIPAWAEDVAEKAAMEWESWKKCVIPPSSTRE”, the “soluble on expression in E. coli” value was “soluble”.
In the case of “GPGSMVLIECKRLPKDEYSKDYDVFLVSIPGVTNIGEATDVLQQMRNTRVRIKWMMAAAKQLAKDFCSEEQQHHLLGPVADAERYMSLERAERRLTCTQKELDDLVDAFKGGAMILFPAECSGTDAVKRLAQLLDDDNTTDTERSKAHRLLSIIDDGATTEDILQGVATMWWSGKQLDRAADFTKYVGKNEKTKITVKLTAKDAPAPPREPALDAKAQSELMAYYFRKQEEMKKMIEDEDLSYGNSAWANPQGLKSQLHGFDSVKFKPG”, the “soluble on expression in E. coli” value is reported as “soluble”.
For “GPHMTQEEAVVNASLWEYVRLRESYDADTAQYAYDLVSNFSAPMVRQNYQQFFNYPNPTSPQVILGKHGRLEVEHIASNDVTPGVQQIRYKRTLIVDGKMPMASTWTATVRYEKVTSLPGRLRLTNPGGLVVTSYQTSEDTVSNAGHSEP”, the “soluble on expression in E. coli” value was “soluble”.
In the case of “GPLGSKELKVTQPEKSVSVAAGDSTVLNCTLTSLLPVGPIKWYRGVGQSRLLIYSFTGEHFPRVTNVSDATKRNNMDFSIRISNVTPEDAGTYYCVKFQKGPSEPDTEIQSGGGTEVYVL”, the “soluble on expression in E. coli” value is reported as “soluble”.
In the case of “GPNANPIPEHFFAPYIDMSLSVHKPLVEYAKLTGTKYFTLAFILYSSVYNGPAWAGSIPLEKFVDEVRELREIGGEVIIAFGGAVGPYLCQQASTPEQLAEWYIKVIDTYNATYLDFDIAAGIDADKLADALLIVQRERPWVKFSFTLPSDPGIGLAGGYGIIETMAKKGVRVDRVNPMTMDYYWTPSNAENAIKVAENVFRQLKQIYPEKSDEEIWKMIGLTPMIGVNDDKSVFTLEDAQQLVDWAIQHKIGSLAFWSVDRDHPGPTGEVSPLHRGTNDPDWAFSHVFVKFMEAFGYTFSAQTSEASVPT”, the “soluble on expression in E. coli” value is reported as “soluble”.
With “GPQDPDKRRKTLVIIEKTYSLLLDVEDYERRYLLSLEEERPALMDDRKHKICSMYDNLRGKLPGQERPSDDHFVQIMCIRKGKRMVARILPFLSTEQAADILMTTARNLPFLIKKDAQDEVLPCLLSPFSLLLYHLPSVSITSLLRQLMNLPQSAATPALSNPHLTAVLQNKFGLSLLLILLSRGEDLQSSDPATESTQNNQWTEVMFMATRELLRIPQAALAKPISIPTNLVSLFSRYVDRQKLNLLETKLQLVQ” the “soluble on expression in E. coli” value was “soluble”.
For “GPVPTPPDNIQVQENFNISRIYGKWYNLAIGSTCPWLKKIMDRMTVSTLVLGEGATEAEISMTSTRWRKGVCEETSGAYEKTDTDGKFLYHKSKWNITMESYVVHTNYDEYAIFLTKKFSRHHGPTITAKLYGRAPQLRETLLQDFRVVAQGVGIPEDSIFTMADRGECVPGEQEPEPILIPRV”, the “soluble on expression in E. coli” value was “soluble”.
For “GQEVTVSCAEGDTGFIYAGLLDVQITDVALDNMPKAPVKVMMNVGNPELAFSFANLPSEGIGLARMEFIINRQIGIHPKALLEFDKQDDELKAEITRRIAGYASPVDFYVDKIAEGVATLAASVYPRKTIVRMSDFKSNEYANL”, the “soluble on expression in E. coli” value was “not soluble”.
With “GQSLRSFQKQNEDNDKRQQILRSINVNVSSSEAETKYNELIKEAFLVNENGEKVEGDAFATDVVKAATEHQYPVFVANVDGQPKYIMALHGAGLWGPLWGYISVDSDKNTIYGADFSHQGETPGLGAEISKPVFSNEFKGKKIFMSGEFKSVAVVKPGKSVAGQDYVDGISGGTITSKGVDEMLFNSLSGYVKFLTSQN” the “soluble on expression in E. coli” value was “soluble”.
